Test results taken from the supplement of paper PMC9170038.

System: MS2 coat protein
Assay: apparent KD of MS2 coat protein; designed switch direction (-1 OFF switch, 1 ON switch): -1; higher = weaker reporter binding
In short: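 For each design, the apparent KD is the median over clusters of curves fitted to normalised cluster fluorescence. Clusters held RNA switches with common flanks, transcribed on Illumina chips by stalled E. coli RNA polymerase. These were titrated with SNAP-549-labelled MS2 coat protein, doubling from 0.7 or 1.5 nM to 3 µM, without input, with 200 uM small-molecule ligand, or with an oligonucleotide input.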

[1] = input ligand: microRNA oligo, concentration not stated
[2] = Eterna round: R95, input ligand: microRNA oligo, concentration not stated
[3] = Eterna round: R95, input ligand: FMN 200 uM
[4] = Eterna round: R95, input ligand: none

Sequence | apparent KD of MS2 coat protein (input ligand: FMN 200 uM) [nM] | apparent KD of MS2 coat protein [1] [nM] | apparent KD of MS2 coat protein (input ligand: none) [nM] | apparent KD of MS2 coat protein [2] [nM] | apparent KD of MS2 coat protein [3] [nM] | apparent KD of MS2 coat protein [4] [nM]
GGAGGAGAGUUAGGAUAUACAAGAAGAAUGUGAGUAGAAGGAACGGAACAUGAGGAUCACCCAUGUCCCAUGUGGAGGAGGAGG [Kawasakiqro] (Eterna round: R96, puzzle: Exclusion NG 1) | 46.2 | 25.3 | 30.9 |  |  | 
GGGUAGUGAGGAUAUCGUUGUUAGGAGGAGUAGGUAGGAGGCGAGAAGGCACAUGAGGAUCACCCAUGUAUGGA [JR_Exclu4_Sub067] (puzzle: Exclusion 4) |  |  |  | 30.7 |  | 
CUUCAGUGAGGAUAUGGCAUGCGCUGAUAAGCGCUCUCACGCCAGAAGGCACAUGAGGAUCACCCAUGUAAAAC [Eddionce] (puzzle: Exclusion 4) |  |  |  | 41.3 |  | 
GUAUGUGGUAAGGAUAUGCAUAAAACCCGCUCCGCAGAAGGUACCACAUGAGGAUCACCCAUGUGAUACCAAUA [EX6 A.16] (Eterna round: R97, puzzle: Exclusion 6) | 16.1 |  | 14.3 |  |  | 
UAUUUGCAAGGAUAUGAUUUAAGUAACAUGAGGAUCACCCAUGUUUAUCCGUUGUUAUGUUCAGAAGGUGCGUGAU [JR_E5_Sub019] (puzzle: Exclusion 5) |  |  |  | 50.2 |  | 
UGCAGACGAGGAUAUGAUCAAUAAUACAUGAGGAUCACCCAUGUAAUACUGAUCCAUGGAUCAGAAGGUGUCUGCA [E5/5-B2] (Eterna round: R97, puzzle: Exclusion 5) | 19.5 |  | 17.5 |  |  | 
AGGCAAUCAGGAUAUACAUGAGGAUCACCCAUGUGUACAAAGCACAUCCGAUCUAGAUGUAGAAGGGAUAUGCA [Usmabesobi] (puzzle: Exclusion 3) |  |  |  | 18 |  | 
GUGUAGCAAGGAUAUACAUGAGGAUCACCCAUGUGAAUAAGAUAGAAUAAGAUAAAGUGUAGAAGGUGCAGUGU [Excluse me!!! 8 - Jieux - Exclusion 3] (puzzle: Exclusion 3) |  |  |  | 36.6 |  | 
UUCGUGCAGCUUUGCUGUACGCGUACAUGAGGAUCACCCAUGUAGGAUAUGGUAGGCUUUGCUUACUAGAAGGAUAGAGUGAUC [JL EXNG3 1.29] (Eterna round: R96, puzzle: Exclusion NG 3) | 80.7 | 67.8 | 95.7 |  |  | 
GCAUUCUGAGGAUAUACAUGAGGAUCACCCAUGUUGAGAAAUAAGAAUAAGUACUUAAGUAGAAGGCAGAGUGC [JR_Ex3_Sub074] (Eterna round: R97, puzzle: Exclusion 3) | 61.6 |  | 15.8 |  |  | 
CAAGAAUCUAUAUAAAGGCACAUGAGGAUCACCCAUGUGGUCCGUAAAAUCAUGCGACAAGCCAUUUGCUCGUCGUG [Eternabot (L2) Solution 30] (Eterna round: R97, puzzle: Sensor, turn-off variant 1) | 33.2 |  | 37.6 |  |  | 
UCCUCACAUGAGGAUCACCCAUGUUAGGAUAUCCACCGUUGAUGGUGCCGAAUCGGUAGGAGAAGGAACAUACA [EX1 B.18] (Eterna round: R97, puzzle: Exclusion 1) | 58.8 |  | 24.1 |  |  | 
AAAAAGUCAGGAUAUGCGAAGGCGUCUGAUAGACGAGGCUAGCAGAAGGGACAUGAGGAUCACCCAUGUAAAGA [Mat - Exclusion 4 - D82] (Eterna round: R96, puzzle: Exclusion 4) |  | 19.4 |  |  |  | 
UGACCUUUUGUCAGGAUAUAUAUACGUGUUGGUAGGUAGAAGGGACAUGAGGAUCACCCAUGUGGUUUGAGCUA [Eternabot (L1) Solution 74] (Eterna round: R97, puzzle: Brourd's mod of Exclusion 4) | 433 |  | 155 |  |  | 
AUUAAACAUGUAGGAUAUGCGUGGCGAAGCUAUGCAGAAGGACAUGAGGAUCACCCAUGUAAAAGCGUCUGCGUACAGAUGCAA [Mat - Exclusion NG 1 - Mod of JL - D84] (Eterna round: R96, puzzle: Exclusion NG 1) | 468 | 28 | 38.9 |  |  | 
CAGUACUGAGGAUAUACAUGAGGAUCACCCAUGUGUGAGAUACUAGUGAGGUCGAUUAGUAGAAGGCAGUACUG [Mat X3R4 m25] (Eterna round: R97, puzzle: Exclusion 3) | 957 |  | 26.3 |  |  | 
UCAUCGCAAGGAUAUACUUGCGGUGAUGUUCGAAUUCUUCUACUUGAGGAUCACCCAAGUAGAAGGUGCGAUGA [jl-ex2.4.63 ViennaUCT mod] (Eterna round: R97, puzzle: Exclusion 2) | 13.2 |  | 13.5 |  |  | 

Sequence | apparent KD of MS2 coat protein (input ligand: FMN 200 uM) [nM] | apparent KD of MS2 coat protein [1] [nM] | apparent KD of MS2 coat protein (input ligand: none) [nM] | apparent KD of MS2 coat protein [2] [nM] | apparent KD of MS2 coat protein [3] [nM] | apparent KD of MS2 coat protein [4] [nM]
UGUCAAGCAGGAUAUGCACGUAAUAACAUGAGGAUCACCCAUGUGACCGAUUUAUAUUCUGCAGAAGGGCUUGUUU [LRO-Excl5-19-mod of Erxesoan mod by Eli Fisker] (Eterna round: R97, puzzle: Exclusion 5) | 109 |  | 26.7 |  |  | 
UAUUAUCAAGCAAGAUCCCACAUGAGGAUCACCCAUGUGCUCGUCUUAUUUCCGGCCUUAUUGGGCUCUCGUCUAAU [JR_STOV1_v2_Sub094] (Eterna round: R97, puzzle: Sensor, turn-off variant 1) | 34 |  | 33.5 |  |  | 
AGAUCUAGGACAGGAUAUACAGAUGGCUUCAUCGAAGAUGAAGCCAUUACAUGAGGAUCACCCAUGUAGAAGGGUCCUAGAUCA [Omei Exc(NG) 2Av5] (Eterna round: R96, puzzle: Exclusion NG 2) | 17.7 | 12 | 14.2 |  |  | 
GAUUAUGCGAGCUUUAGGGACAUGAGGAUCACCCAUGUUCGUCUUAUUGAUCUGGAUGCACUGACAUACCUAAAUCU [JMF 80] (puzzle: Sensor v3, turn-off variant 1) |  |  |  | 37.5 | 29 | 28.3
UGUUGUUACGCAGGAUAUGUAUGAGGAUCACCCAUAAAACACACACUCCCAUGAGGAUCACCCAUGUAGAAGGGCGGGUUAACA [pwkr exNG2 2xF5 1xFMN.8] (Eterna round: R96, puzzle: Exclusion NG 2) | 124 | 54.9 | 80.8 |  |  | 
CACUUACAUGAGGAUCACCCAUGUGAGGAUAUCGUGACCUGACGAGAAGUCAAUGUCACGAGAAGGCACGUGGG [Exclusion 1 (Mod 3 solution 97 by Eternabot)] (Eterna round: R97, puzzle: Exclusion 1) | 11.9 |  | 35.9 |  |  | 
AUAAAGUCAGGAUAUCGAAGUGAGUGGAGAGGAGGGAGGUACGAGAAGGGACAUGAGGAUCACCCAUGUAGGAA [JR_Exclusion4)Sub006] (puzzle: Exclusion 4) |  |  |  | 24.2 | 25.5 | 21.9
CUCUUGUGAGGAUAUCGAAGAAAAGAAAAGAAAGAAAAGAACGAGAAGGCACAUGAGGAUCACCCAUGUAAGAA [EteRNA is fun!] (Eterna round: R96, puzzle: Exclusion 4) | 127 | 30.4 | 39.4 |  |  | 
GCAAGAAUAGGAUAUACACCAUGCCAGCUUCUAUACAACGCACAUGAGGAUCACCCAUGUAGAAGGGUUCUCUC [Exclusion-2-#11] (Eterna round: R97, puzzle: Exclusion 2) | 336 |  | 323 |  |  | 
CGAUGCUCGAAUCCACAUGAGGAUCACCCAUGUCGAGUUAGCGAGGAUAUCGGAGACACAUAGUAUGAGAAGGCGCGAACCUGA [Ex NG3 #23] (Eterna round: R96, puzzle: Exclusion NG 3) | 15.5 | 10.5 | 12.1 |  |  | 
GCGCCAUCGUGAGAUGGCGUAACUACAUGAGGAUCACCCAUGUAGGAUAUCGAUUGCUUUGCAGUCGAGAAGGGCAAGGGAUUU [JL ENG3 3.88] (Eterna round: R96, puzzle: Exclusion NG 3) | 25.8 | 14.7 | 20.4 |  |  | 
CGUCGAAAUGUAGGAUAUCUGCACGUUUAGUGCAGAGAAGGACAUGAGGAUCACCCAUGUAGAUCACGACGAAUUAAUUUAAUU [ENG1/5-C2] (Eterna round: R96, puzzle: Exclusion NG 1) | 374 | 47.3 | 65.8 |  |  | 
ACAAGCUUAAAAAUCCUAAACAUGAGGAUCACCCAUGUUCGUCUUAUAAAAAUAAAAAUAAAAAAUAAAAAAUAAAA [Sensor V2: 70] (Eterna round: R96, puzzle: Sensor v2, turn-off variant) | 49.1 | 228 | 51.9 |  |  | 
CCUAGCCUAAAAUCACGCAAGCUUUUUGCUUGUCUUAAGACAUGAGGAUCACCCAUGUCCGGGCUGAACUUAUGGAA [Veorxe] (puzzle: Sensor v3, turn-off variant 2) |  |  |  | 23.2 | 17.8 | 16.6
AACAGUGUAGGAUAUACAGGGCAAACGGCACCCGUCUCCGGACAUGAGGAUCACCCAUGUAGAAGGACACCUAU [EX2 C.16] (Eterna round: R97, puzzle: Exclusion 2) | 246 |  | 47.4 |  |  | 
CCUCCGCAUUAGGAUAUCGUCACAGAAAUGUGACGAGAAGGAAUGACAUGAGGAUCACCCAUGUUAACGUGAUG [Mod of Brourd 15 - Jieux - Exclusion 6] (Eterna round: R97, puzzle: Exclusion 6) | 276 |  | 48.7 |  |  | 
CUGAACCCGGUAGGAUAUAUUGUGGGCGGGCGUGGAACGACAUGAGGAUCACCCAUGUAAUUGAGGUAGAAGGGCCGAGAGAUU [Excl-NG2-LRO15] (Eterna round: R96, puzzle: Exclusion NG 2) | 37.9 | 23 | 46.4 |  |  | 
